Source: publication PMC2955809 (Structure (London, England : 1993), 2010)

Molecular target: the molecule itself
Experiment: SEC

B1: R.Eco29kI restriction endonuclease, E142Q (enzyme, E. coli strain 29K (plasmid pECO29), UniProt Q46944 1-214, looked up)
chain: MHNKKFDRSEHVYRNDSFLELIKDAVRFFSGTPVHSLPPPERFQGAGVYALYYTGHYSLYDEYSRINRLAYNLPIYVGKAVPAGWRQSRISDHETRAGSELSNRIREHGRNIAKTSNLDLCDFSCRFVIFEATGSDMISTVQAALIKIYKPLWNTVVDGFGNHTPGAGRFAQAKSDWDVIHPGREWAEKCTGVHSEPYFIEERIKQYFSKSNFT
stoichiometry N: 2
